This is an account of results in patent US6866997.

In data set [1] the test system is anti-ras lead zinc finger peptide (designed) (synthetic). The conditions noted are these: apparent Kd; phage display.
Data set [2] relates to anti-ras optimised zinc finger peptide (F1 position +3 Asn) (synthetic). The conditions noted are these: apparent Kd; phage display, Zn.
Data set [3] has as its target F2-Arg finger 3 Asp2Ala finger 3 helix position 2 D to A (synthetic) (UniProt P08046). The conditions noted are these: about four-fold reduced affinity versus F2-Arg; phage ELISA, Zn, 20 C. Background: An ELISA detects its analyte on a solid surface through an enzyme-linked reagent.
For data set [4], the target named is Zif268 DNA-binding domain finger 3 Asp2Ala finger 3 helix position 2 D to A (UniProt P08046). The conditions noted are these: about four-fold reduced affinity versus wild-type Zif268; phage ELISA, Zn, 20 C.

Turning to GACGGCGCC (double strand), the results for the Kd in data set [1] and in data set [2] were 17 nM and 3 nM, respectively.

In turn, “GCGGTGGCG (double strand) [F2-Arg consensus site]” showed a binding signal in data set [3] of 4 fold.

“GCGTGGGCG (double strand) [Zif268 consensus site]” yielded a binding signal in data set [4] of 4 fold.
